From patent US6861508B2, “Transcriptional intermediary factor-2” (Institut National de la Sante et de la Recherche Medicale, priority 1996, dated 2005)

T1: TIF2.1 (TIF2 amino acids 624 to 1287) (human, UniProt Q15596 624-1287)
T1 construct: Form without a stated tag: expression-library clone, expressed in Cos cells from pSG5, or in-vitro-translated; also called cytoplasmic TIF2.1 polypeptide
T1 sequence: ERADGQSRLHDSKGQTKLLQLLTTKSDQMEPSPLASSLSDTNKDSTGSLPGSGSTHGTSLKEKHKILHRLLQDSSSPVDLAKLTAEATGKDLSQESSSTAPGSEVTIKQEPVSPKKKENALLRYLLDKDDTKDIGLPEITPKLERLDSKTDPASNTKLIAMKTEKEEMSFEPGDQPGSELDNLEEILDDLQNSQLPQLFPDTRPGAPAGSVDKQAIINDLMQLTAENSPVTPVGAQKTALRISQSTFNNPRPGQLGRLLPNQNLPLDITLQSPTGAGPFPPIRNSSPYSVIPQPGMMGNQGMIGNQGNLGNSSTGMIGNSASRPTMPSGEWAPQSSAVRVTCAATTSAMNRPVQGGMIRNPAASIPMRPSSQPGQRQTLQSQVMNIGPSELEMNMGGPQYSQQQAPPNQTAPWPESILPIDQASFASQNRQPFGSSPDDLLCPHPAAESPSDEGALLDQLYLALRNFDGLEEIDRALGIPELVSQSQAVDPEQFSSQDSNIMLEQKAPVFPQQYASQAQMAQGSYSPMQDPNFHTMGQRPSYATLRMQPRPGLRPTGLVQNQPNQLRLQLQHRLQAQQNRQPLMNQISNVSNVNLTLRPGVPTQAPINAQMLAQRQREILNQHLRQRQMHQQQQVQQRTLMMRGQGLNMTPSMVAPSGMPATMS

T2: (His)6-TIF2.1, E. coli-expressed purified recombinant TIF2.1 (human, UniProt Q15596 624-1287)
T2 construct: also called His-tagged TIF2.1; purified TIF2.1 protein; not shown: (His)6 tag of pET15b
T2 sequence: T1 sequence

B1: GST-hERα(DEF) (pGEX2T-hERα(DEF), amino acids 282-595) (receptor, human, UniProt P03372 282-595, looked up)
chain: SAGDMRAANLWPSPLMIKRSKKNSLALSLTADQMVSALLDAEPPILYSEYDPTRPFSEASMMGLLTNLADRELVHMINWAKRVPGFVDLTLHDQVHLLECAWLEILMIGLVWRSMEHPGKLLFAPNLLLDRNQGKCVEGMVEIFDMLLATSSRFRMMNLQGEEFVCLKSIILLNSGVYTFLSSTLKSLEEKDHIHRVLDKITDTLIHLMAKAGLTLQQQHQRLAQLLLILSHIRHMSNKGMEHLYSMKCKNVVPLYDLLLEMLDAHRLHAPTSRGGASVEETDQSHLATAGSTSSHSLQKYYITGEAEGFPATV
notes: range 282-595; Bacterially produced; also used 32P-labelled as Far-Western probe; also called GST-ER; GST-ER(DEF); not shown: glutathione-S-transferase (GST) of pGEX2T (Pharmacia)
B2: GST-hRARα(DEF) (pGEX2T-hRARα(DEF), amino acids 153-462) (receptor, human, UniProt P10276 153-462, looked up)
chain: MSKESVRNDRNKKKKEVPKPECSESYTLTPEVGELIEKVRKAHQETFPALCQLGKYTTNNSSEQRVSLDIDLWDKFSELSTKCIIKTVEFAKQLPGFTTLTIADQITLLKAACLDILILRICTRYTPEQDTMTFSDGLTLNRTQMHNAGFGPLTDLVFAFANQLLPLEMDDAETGLLSAICLICGDRQDLEQPDRVDMLQEPLLEALKVYVRKRRPSRPHMFPKMLMKITDLRSISAKGAERVITLKMEIPGSMPPLIQEMLENSEGLDTLSGQPGGGGRDGGGLAPPPGSCSPSLSPSSNRSSPATHSP
notes: range 153-462; Bacterially produced; also called GST-RAR; GST-RARα(DEF); not shown: glutathione-S-transferase (GST) of pGEX2T (Pharmacia)

Columns and labels:
ER = assay: CAT reporter transactivation by ER with TIF2/TIF2.1 coexpression; assay type: cell-based; conditions: HeLa, Cos-1 cells
Experimental: (b) HeLa cells were cotransfected with 5 μg Vit-tk-CAT and the indicated amount of HEGO, with or without 5 μg TIF2.1 in the presence of […] E2 or OHT. CAT activity is given relative to that induced by 100 ng HEGO in presence of E2.
(d) HeLa (lanes 1-12) or Cos-1 lanes 13-18) cells were transfected with 5 fig GRE-TATA-CAT (lanes 1-6) or 1 μg MMTV-CAT (lanes 7-18) together with 1 μg hPR with or without 3 μg TIF 2 in presence or absence of […] of the indicated ligand. • (e) Cos-1 cells were cotransfected with 1 μg Vit-tk-CAT and 1 μg HEGO with or without 3 μg TIF2 in presence or absence of 10^−6 M of the indicated ligands.
TIF2-stimulation is to some extent affected by the promoter environment of the responsive gene, as the TIF2 effect on PR/5020-induced transactivation was greater for a complex (MMTV) than for a minimal (GRE-TATA) promoter, although the latter was also reproducibly stimulated (FIG. 5d).

[1] = target: T1, TIF2.1 (TIF2 amino acids 624 to 1287); assay: Far-Western blot with 32P-labelled NR LBD probe, agonist present
[2] = target: T3, transcriptional intermediary factor-2 (TIF2) (human, UniProt Q15596 1-1464); assay: Far-Western blot with E2-bound 32P-GST-ER(DEF)
T3 construct: Full length: endogenous protein of cell extracts (HeLa, MCF-7 and others), protein from transfected Cos-1 cells, or in-vitro-translated; also called 160-kDa protein
T3 sequence (Q15596 whole entry P1420S): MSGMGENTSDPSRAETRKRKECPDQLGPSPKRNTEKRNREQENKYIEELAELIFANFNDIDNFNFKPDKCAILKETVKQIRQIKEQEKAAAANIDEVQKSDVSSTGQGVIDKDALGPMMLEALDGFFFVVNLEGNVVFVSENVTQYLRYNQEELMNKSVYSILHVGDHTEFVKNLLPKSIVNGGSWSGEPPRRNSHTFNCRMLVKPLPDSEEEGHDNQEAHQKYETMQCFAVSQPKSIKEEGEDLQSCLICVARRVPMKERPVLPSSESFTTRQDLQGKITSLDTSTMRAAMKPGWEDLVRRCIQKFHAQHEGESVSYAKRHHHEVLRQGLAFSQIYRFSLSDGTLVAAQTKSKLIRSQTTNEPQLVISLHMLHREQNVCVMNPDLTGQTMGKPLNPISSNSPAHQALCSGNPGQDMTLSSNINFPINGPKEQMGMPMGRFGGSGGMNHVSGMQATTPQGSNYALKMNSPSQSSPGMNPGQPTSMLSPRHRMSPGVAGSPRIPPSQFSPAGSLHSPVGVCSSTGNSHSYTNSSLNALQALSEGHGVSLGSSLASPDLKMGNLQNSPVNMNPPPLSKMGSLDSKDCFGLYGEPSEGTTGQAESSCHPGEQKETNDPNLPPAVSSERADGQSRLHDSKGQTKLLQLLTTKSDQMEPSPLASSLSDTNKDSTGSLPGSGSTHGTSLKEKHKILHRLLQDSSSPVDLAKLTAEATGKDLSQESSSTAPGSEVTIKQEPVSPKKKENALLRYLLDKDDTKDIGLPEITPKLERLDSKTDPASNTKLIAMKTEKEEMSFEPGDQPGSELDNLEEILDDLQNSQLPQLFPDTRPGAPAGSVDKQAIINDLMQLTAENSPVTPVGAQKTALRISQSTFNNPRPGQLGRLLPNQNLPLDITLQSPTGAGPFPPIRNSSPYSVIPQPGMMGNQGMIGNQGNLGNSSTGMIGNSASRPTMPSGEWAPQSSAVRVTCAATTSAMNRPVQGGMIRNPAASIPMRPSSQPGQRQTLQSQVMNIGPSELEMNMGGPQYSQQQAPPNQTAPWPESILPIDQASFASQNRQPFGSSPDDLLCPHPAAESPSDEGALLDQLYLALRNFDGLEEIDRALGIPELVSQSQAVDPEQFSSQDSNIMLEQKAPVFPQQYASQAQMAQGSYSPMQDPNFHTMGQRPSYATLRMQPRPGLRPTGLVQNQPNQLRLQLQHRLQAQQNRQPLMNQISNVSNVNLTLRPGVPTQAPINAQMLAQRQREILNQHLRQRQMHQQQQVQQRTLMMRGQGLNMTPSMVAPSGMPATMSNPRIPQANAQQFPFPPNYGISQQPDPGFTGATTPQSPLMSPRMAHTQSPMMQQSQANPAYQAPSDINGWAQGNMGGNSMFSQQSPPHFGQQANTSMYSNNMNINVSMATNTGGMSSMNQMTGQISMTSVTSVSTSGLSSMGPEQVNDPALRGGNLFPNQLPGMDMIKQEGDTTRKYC

[3] = target: T2, (His)6-TIF2.1, E. coli-expressed …; assay: GST interaction assay with E. coli-expressed TIF2.1, Western blot, agonist present

Molecule | stimulation by TIF2.1 of transactivation by antagonist-bound ER (ER) | binding result [1] | binding result [2] | binding result [3]
CC/C(=C(\c1ccc(O)cc1)c1ccc(OCCN(C)C)cc1)c1ccccc1 [hydroxytamoxifen] | did not lead to any stimulation |  |  | 
B1 |  | binds | binds | 
B2 |  | binds |  | binds
